From US20200087373A1 (UNIVERSITY OF COPENHAGEN, published 2020)
Ends that are not written are not given here. * marks the point of attachment. Palmitoyl = CCCCCCCCCCCCCCCC(=O)*; Lauroyl = CCCCCCCCCCCC(=O)*

T1: human GIP receptor (human, UniProt P48546 22-466)
T1 sequence (looked up): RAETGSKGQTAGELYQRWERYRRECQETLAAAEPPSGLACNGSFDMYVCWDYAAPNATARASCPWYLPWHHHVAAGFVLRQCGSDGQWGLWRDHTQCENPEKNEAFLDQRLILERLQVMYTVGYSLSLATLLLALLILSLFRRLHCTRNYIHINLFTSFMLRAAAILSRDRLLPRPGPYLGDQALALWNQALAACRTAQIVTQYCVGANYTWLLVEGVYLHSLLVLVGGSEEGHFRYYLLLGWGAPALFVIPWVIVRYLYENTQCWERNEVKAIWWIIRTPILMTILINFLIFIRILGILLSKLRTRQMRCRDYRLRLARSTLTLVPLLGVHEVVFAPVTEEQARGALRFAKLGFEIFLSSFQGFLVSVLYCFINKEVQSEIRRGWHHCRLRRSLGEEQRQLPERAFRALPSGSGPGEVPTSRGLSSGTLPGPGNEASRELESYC

B1: AT135 [hGIP(5-30)NH2[K16R; K30R]-C16/5] (peptide)
peptide: Palmitoyl-TFISDYSIAMDRIHQQDFVNWLLAQR-NH2
SMILES: CCCCCCCCCCCCCCCC(=O)N[C@H](C(=O)N[C@@H](Cc1ccccc1)C(=O)N[C@H](C(=O)N[C@@H](CO)C(=O)N[C@@H](CC(=O)O)C(=O)N[C@@H](Cc1ccc(O)cc1)C(=O)N[C@@H](CO)C(=O)N[C@H](C(=O)N[C@@H](C)C(=O)N[C@@H](CCSC)C(=O)N[C@@H](CC(=O)O)C(=O)N[C@@H](CCCNC(=N)N)C(=O)N[C@H](C(=O)N[C@@H](Cc1c[nH]cn1)C(=O)N[C@@H](CCC(N)=O)C(=O)N[C@@H](CCC(N)=O)C(=O)N[C@@H](CC(=O)O)C(=O)N[C@@H](Cc1ccccc1)C(=O)N[C@H](C(=O)N[C@@H](CC(N)=O)C(=O)N[C@@H](Cc1c[nH]c2ccccc12)C(=O)N[C@@H](CC(C)C)C(=O)N[C@@H](CC(C)C)C(=O)N[C@@H](C)C(=O)N[C@@H](CCC(N)=O)C(=O)N[C@@H](CCCNC(=N)N)C(N)=O)C(C)C)[C@@H](C)CC)[C@@H](C)CC)[C@@H](C)CC)[C@@H](C)O
B2: AT133 [hGIP(5-30)NH2[K16R; H18K; K30R]-C16/5] (peptide)
peptide: Palmitoyl-TFISDYSIAMDRIKQQDFVNWLLAQR-NH2
SMILES: CCCCCCCCCCCCCCCC(=O)N[C@H](C(=O)N[C@@H](Cc1ccccc1)C(=O)N[C@H](C(=O)N[C@@H](CO)C(=O)N[C@@H](CC(=O)O)C(=O)N[C@@H](Cc1ccc(O)cc1)C(=O)N[C@@H](CO)C(=O)N[C@H](C(=O)N[C@@H](C)C(=O)N[C@@H](CCSC)C(=O)N[C@@H](CC(=O)O)C(=O)N[C@@H](CCCNC(=N)N)C(=O)N[C@H](C(=O)N[C@@H](CCCCN)C(=O)N[C@@H](CCC(N)=O)C(=O)N[C@@H](CCC(N)=O)C(=O)N[C@@H](CC(=O)O)C(=O)N[C@@H](Cc1ccccc1)C(=O)N[C@H](C(=O)N[C@@H](CC(N)=O)C(=O)N[C@@H](Cc1c[nH]c2ccccc12)C(=O)N[C@@H](CC(C)C)C(=O)N[C@@H](CC(C)C)C(=O)N[C@@H](C)C(=O)N[C@@H](CCC(N)=O)C(=O)N[C@@H](CCCNC(=N)N)C(N)=O)C(C)C)[C@@H](C)CC)[C@@H](C)CC)[C@@H](C)CC)[C@@H](C)O
B3: AT134 [hGIP(5-30)NH2[K16R; H18K; K30R]-16/18] (peptide)
peptide: TFISDYSIAMDRIK(Palmitoyl)QQDFVNWLLAQR-NH2
modifications: N-terminus assumed
SMILES: CCCCCCCCCCCCCCCC(=O)NCCCC[C@H](NC(=O)[C@@H](NC(=O)[C@H](CCCNC(=N)N)NC(=O)[C@H](CC(=O)O)NC(=O)[C@H](CCSC)NC(=O)[C@H](C)NC(=O)[C@@H](NC(=O)[C@H](CO)NC(=O)[C@H](Cc1ccc(O)cc1)NC(=O)[C@H](CC(=O)O)NC(=O)[C@H](CO)NC(=O)[C@@H](NC(=O)[C@H](Cc1ccccc1)NC(=O)[C@@H](N)[C@@H](C)O)[C@@H](C)CC)[C@@H](C)CC)[C@@H](C)CC)C(=O)N[C@@H](CCC(N)=O)C(=O)N[C@@H](CCC(N)=O)C(=O)N[C@@H](CC(=O)O)C(=O)N[C@@H](Cc1ccccc1)C(=O)N[C@H](C(=O)N[C@@H](CC(N)=O)C(=O)N[C@@H](Cc1c[nH]c2ccccc12)C(=O)N[C@@H](CC(C)C)C(=O)N[C@@H](CC(C)C)C(=O)N[C@@H](C)C(=O)N[C@@H](CCC(N)=O)C(=O)N[C@@H](CCCNC(=N)N)C(N)=O)C(C)C
B4: AT145 [hGIP(5-30)NH2[H18K]-C16/18] (peptide)
peptide: TFISDYSIAMDKIK(Palmitoyl)QQDFVNWLLAQK-NH2
modifications: N-terminus assumed
SMILES: CCCCCCCCCCCCCCCC(=O)NCCCC[C@H](NC(=O)[C@@H](NC(=O)[C@H](CCCCN)NC(=O)[C@H](CC(=O)O)NC(=O)[C@H](CCSC)NC(=O)[C@H](C)NC(=O)[C@@H](NC(=O)[C@H](CO)NC(=O)[C@H](Cc1ccc(O)cc1)NC(=O)[C@H](CC(=O)O)NC(=O)[C@H](CO)NC(=O)[C@@H](NC(=O)[C@H](Cc1ccccc1)NC(=O)[C@@H](N)[C@@H](C)O)[C@@H](C)CC)[C@@H](C)CC)[C@@H](C)CC)C(=O)N[C@@H](CCC(N)=O)C(=O)N[C@@H](CCC(N)=O)C(=O)N[C@@H](CC(=O)O)C(=O)N[C@@H](Cc1ccccc1)C(=O)N[C@H](C(=O)N[C@@H](CC(N)=O)C(=O)N[C@@H](Cc1c[nH]c2ccccc12)C(=O)N[C@@H](CC(C)C)C(=O)N[C@@H](CC(C)C)C(=O)N[C@@H](C)C(=O)N[C@@H](CCC(N)=O)C(=O)N[C@@H](CCCCN)C(N)=O)C(C)C

Target: T1, human GIP receptor
Assay: cell-based or functional assay

Row | Binder | cAMP agonism, EC50 (log) [log M] | cAMP agonism, Emax [%] | cAMP agonism, nM (EC50) [nM] | cAMP antagonism, log (IC50) [log M] | cAMP antagonism, nM (IC50) [nM]
1 | Lauroyl-EGTFISDYSIAMDKIHQQDFVNWLLAQK-NH2 [AT101 [hGIP(3-30)NH2-C12/3]] | -9.1 | 62 | 0.7 |  | 
2 | EGTFISDYSIAMDK(Lauroyl)IHQQDFVNWLLAQK-NH2 [AT102 [hGIP(3-30)NH2-C12/16]] | -9.1 | 66 | 0.7 |  | 
3 | B1 |  | 0 |  |  | 
4 | EGTFISDYSIAMDKIHQQDFVNWLLAQK(Lauroyl)-NH2 [AT103 [hGIP(3-30)NH2-C12/30]] | -5.3 | 7 | 4880 | -6.9 | 121
5 | EGTFISDYSIAMDKIHQQDFVNWLLAQK-NH2 [hGIP(3-30)NH2] |  |  |  | -7.2 | 65
6 | B2 |  | 0 |  | -5.4 | 3810
7 | Palmitoyl-EGTFISDYSIAMDKIHQQDFVNWLLAQK-NH2 [AT104 [hGIP(3-30)NH2-C16/3]] | -8.6 | 81 | 2.4 |  | 
8 | B3 | -7 | 11 | 35 | -7 | 93
9 | B4 | -7 | 16 | 33 | -7.2 | 66
